For experiment [1], the target named is T1, SARS-CoV-2 spike receptor-binding domain (soluble RBD, residues 319–591) (SARS-CoV-2, UniProt P0DTC2). The experiment can be described thus: SPR. Background: SPR reads the build-up and loss of mass on a sensor chip optically.
The target of experiment [2] is T1, SARS-CoV-2 spike receptor-binding …. The experiment can be described thus: crystal structure.

The values that follow come from paper PMC10083196 (Cell Reports, 2023).

B1: 1H2 IgG (antibody, V domains shown)
VH: QVQLQQSGGGLVQPGRSLRLSCAASGFTFDDYAMHWVRQAPGKGLEWVSGITWNSGTIGYADSVKGRFTISRDNAKNSLYLQMRSLRAEDTALYYCAKDSGRKLLWGREDYYMGVWGKGTTVTV
VL: SYELTQPPSVSVAPGKTARITCGGSNIGSKSVHWYQQKPGQAPVLVIYYDSDRPSGIPERFSGSNSGNTATLTISRVEAGDEADYYCQVWDSSSDHVVFGG
Take B1: in experiment [1], the binding result was “binds”.

B2: 2A10 IgG (antibody, V domains shown)
VH: QVQLVESGGGLIQPGGSLRLSCAASEFIVSSNYMSWVRQAPGKGLEWVSLLYSGGTTYYADSVKGRFTISRDNSKNTLFLQMNSLRAEDTAMYYCARDRGPWLHDYWGQGTLVTVSS
VL: DIVMTQSPSSLSASVGDRVTITCQASQDINKYCNWYQQKPGKAPKLLIYDASNLETGVPSRFSGSGSGTDFTFTINSLQPEDIATYYCQQYDNLPPTFGGGTKVEIK
On to B2, for which the binding result in experiment [1] is “binds”.

B3: 2A10 Fab (Fab, V domains shown)
VH: QVQLVESGGGLIQPGGSLRLSCAASEFIVSSNYMSWVRQAPGKGLEWVSLLYSGGTTYYADSVKGRFTISRDNSKNTLFLQMNSLRAEDTAMYYCARDRGPWLHDYWGQGTLVTVSS
VL: DIVMTQSPSSLSASVGDRVTITCQASQDINKYCNWYQQKPGKAPKLLIYDASNLETGVPSRFSGSGSGTDFTFTINSLQPEDIATYYCQQYDNLPPTFGGGTKVEIK
In the case of B3, the binding result in experiment [2] is recorded as “binds”.
